The target of this experiment is actin filaments (Alexa488 label on 3-20% of the actin in the microscopy assays). The experiment can be described thus: co-sedimentation.

Our source for the Kd values is article PMC4470865 (Current biology : CB, 2015).

B1: unlabeled Tm1A (recombinant AS-Tm1A, non-muscle Drosophila tropomyosin isoform Tm1A) (natural protein)
chain: MASMTTSIPQGTLLDVLKKKMRQTKEEMEKYKDECEEFHKRLQLEVVRREEAESEVAALNRRIQLLEEDLERSEERLGSATAKLSEASQAADESERIRKALENRTNMEDDKVALLENQLAQAKLIAEEADKKYEEVARKLVLMEQDLERSEEKVELSESKIVELEEELRVVGNNLKSLEVSEEKATQKEETFETQIKVLDHSLKEAEARAEFAERSVQKLQKEVDRLEDDLLNVRGKNKLLQEEMEATLHDIQNM
Usually Kd stands for a measure of binding affinity in units of concentration. In turn, B1 gave a dissociation constant (Kd) of 46 nM.
